B1: polypeptide p17 (peptide)
peptide: GPGISAFSPGRGVYDPETGTWYDAAWHLGELVWATYYDPETGTWEPDWQRMLGQ
B2: variant polypeptide p17_W48A (peptide)
peptide: B1 peptide with W48A
B3: variant polypeptide p17_D47A (peptide)
peptide: B1 peptide with D47A
B4: variant polypeptide p17_P46A (peptide)
peptide: B1 peptide with P46A
B5: variant polypeptide p17_R50A (peptide)
peptide: B1 peptide with R50A
B6: recombinant phage displaying polypeptide SEQ ID NO: 63 (protein, T7 phage, not shown: large carriers)
chain: SNFVRSPSAWYDPETGTWYDAAWHLGELVWATYYDPETGTWEPDWQRMLGQ
modifications: not fully specified; ends and bridges not checked
B7: recombinant phage displaying polypeptide SEQ ID NO: 67 (protein, T7 phage, not shown: large carriers)
chain: VPPRFSSSAQYDPETGTWYDAAWHLGELVWATYYDPETGTWEPDWQRMLGQ
modifications: ends and bridges not checked
B8: recombinant phage displaying polypeptide SEQ ID NO: 69 (protein, T7 phage, not shown: large carriers)
chain: B7 chain with P2V, P3R, R4V, F5D, S6H, Q10V
modifications: ends and bridges not checked
B9: recombinant phage displaying polypeptide SEQ ID NO: 79 (protein, T7 phage, not shown: large carriers)
chain: B7 chain with V1G, P2S, P3C, R4K, A9C, Q10H
modifications: ends and bridges not checked; also: displayed on T7 phage coat protein g10
B10: recombinant phage displaying polypeptide SEQ ID NO: 65 (protein, T7 phage, not shown: large carriers)
chain: GPYNIPDSAVYDPETGTWYDAAWHLGELVWATYYDPETGTWEPDWQRMLGQ
modifications: ends and bridges not checked
B11: recombinant phage displaying polypeptide SEQ ID NO: 66 (protein, T7 phage, not shown: large carriers)
chain: B10 chain with G1W, Y3L, I5A, D7S, V10F
modifications: ends and bridges not checked
B12: recombinant phage displaying polypeptide SEQ ID NO: 71 (protein, T7 phage, not shown: large carriers)
chain: DGVGPGSRGVYDPETGTWYDAAWHLGELVWATYYDPETGTWEPDWQRMLGQ
modifications: ends and bridges not checked
B13: recombinant phage displaying polypeptide SEQ ID NO: 80 (protein, T7 phage, not shown: large carriers)
chain: LIPPGGISPWYDPETGTWYDAAWHLGELVWATYYDPETGTWEPDWQRMLGQ
modifications: ends and bridges not checked
B14: recombinant phage displaying polypeptide SEQ ID NO: 68 (protein, T7 phage, not shown: large carriers)
chain: FLVGLHAGAVYDPETGTWYDAAWHLGELVWATYYDPETGTWEPDWQRMLGQ
modifications: ends and bridges not checked
B15: recombinant phage displaying polypeptide SEQ ID NO: 57 (protein, T7 phage, not shown: large carriers)
chain: B1 peptide
modifications: ends and bridges not checked
B16: recombinant phage displaying polypeptide SEQ ID NO: 64 (protein, T7 phage, not shown: large carriers)
chain: IPYGFPGRGEYDPETGTWYDAAWHLGELVWATYYDPETGTWEPDWQRMLGQ
modifications: ends and bridges not checked
B17: recombinant phage displaying polypeptide SEQ ID NO: 70 (protein, T7 phage, not shown: large carriers)
chain: B16 chain with I1W, P2M, Y3E, G4F, F5Y, E10V
modifications: ends and bridges not checked
B18: recombinant phage displaying polypeptide SEQ ID NO: 72 (protein, T7 phage, not shown: large carriers)
chain: FVSSLPNSAMYDPETGTWYDAAWHLGELVWATYYDPETGTWEPDWQRMLGQ
modifications: ends and bridges not checked

Changes are numbered by the printed parent chain. Ends that are not written are not given here.

For one test, the target named is Fc region prepared from human monoclonal IgG by papain digestion (human). As to the kind of experiment: SPR, Fc immobilized. (Surface plasmon resonance follows binding to a sensor surface in real time, without labels.)
Usually Kd stands for the equilibrium constant for the complex coming apart. Low values mean higher affinity, high ones lower affinity. As for DAAWHLGELVWATYYDPETGTWQPDWLYMTTR [polypeptide pep14], the Kd was found to be 120 nM.
Still for that read-out and setting: under DAAWHLGELVWATYYDPETGTWLPDWQTMAQK [polypeptide pep21] stands 100 nM.
Still for that read-out and setting: the same measure for B1: 1.6 nM.
Consider B2, for which the Kd was 200 nM and the fold decrease of binding activity against p17 is over 100 times.
B3 showed a dissociation constant (Kd) of 45 nM.
Still for that read-out and setting: under B4 stands 5.6 nM; under B5, 7.8 nM; under DAAWHLGELVWATYYDPETGTWAPDWRLMQGQ [polypeptide pep11], 510 nM.

For the next test, the target named is human Fc region manufactured by Jackson ImmunoResearch Laboratories, Inc. (human). As to the kind of experiment: phage ELISA, HRP-labelled Fc.
For the molecule B6, the O.D. 415 was found to be 0.272.
In the case of B7, the O.D. 415 amounted to 0.25.
Molecule B8 displayed an O.D. 415 of 0.201.
The molecule B9 yielded an O.D. 415 of 0.329.
Still for that read-out and setting: the same measure for YDPVTGTWTSSIASWMG (peptide, T7 phage, not shown: large carriers, ends and bridges not checked) [recombinant phage displaying polypeptide SEQ ID NO: 8]: 0.223.
Same read-out and setting: under DAAWHLGELVWATYYDPETGTWTPDWNAMSQR (peptide, T7 phage, not shown: large carriers, ends and bridges not checked) [recombinant phage displaying polypeptide SEQ ID NO: 39] stands 0.273; under DAAWHLGELVWATYYDPETGTWRPDWAVMATP (peptide, T7 phage, not shown: large carriers, ends and bridges not checked) [recombinant phage displaying polypeptide SEQ ID NO: 35], 0.32.
Same read-out and setting: the same measure for B10: 0.291; for B11: 0.182; for YDPRTGTWRRSSLSYSG (peptide, T7 phage, not shown: large carriers, ends and bridges not checked) [recombinant phage displaying polypeptide SEQ ID NO: 9]: 0.193.
With B12, the O.D. 415 was 0.219.
On the same count and under the same terms, the same measure for B13: 0.215.
HWVNGRSGYDPRTGTWRSSIAYGGG (peptide, T7 phage, not shown: large carriers, ends and bridges not checked) [recombinant phage displaying polypeptide SEQ ID NO: 16] gave an O.D. 415 of 0.373.
Same read-out and setting: under DAAWHLGELVWATYYDPETGTWLPDWDYMSSK (peptide, T7 phage, not shown: large carriers, ends and bridges not checked) [recombinant phage displaying polypeptide SEQ ID NO: 37] stands 0.235.
Still for that read-out and setting: under DAAWHLGELVWATYYDPETGTWLPDWQTMAQK (peptide, T7 phage, not shown: large carriers, ends and bridges not checked) [recombinant phage displaying polypeptide SEQ ID NO: 26] stands 0.43; under GSVVRWRGYDPRTGTWRSSIAYGGG (peptide, T7 phage, not shown: large carriers, ends and bridges not checked) [recombinant phage displaying polypeptide SEQ ID NO: 18], 0.36.
The same measure, in the same setting: the same measure for B14: 0.186; for YDPRTGTWLLYASRLLG (peptide, T7 phage, not shown: large carriers, ends and bridges not checked) [recombinant phage displaying polypeptide SEQ ID NO: 7]: 0.214; for DAAWHLGELVWATYYDPETGTWVPDWERMKQH (peptide, T7 phage, not shown: large carriers, ends and bridges not checked) [recombinant phage displaying polypeptide SEQ ID NO: 33]: 0.305.
In the case of DAAWHLGELVWATYYDPETGTWKPDWRMMGVP (peptide, T7 phage, not shown: large carriers, ends and bridges not checked) [recombinant phage displaying polypeptide SEQ ID NO: 36], the O.D. 415 came out at 0.287.
The molecule B15 displayed an O.D. 415 of 0.229.
On the same count and under the same terms, under AGSRRAHGYDPRTGTWRSSIAYGGG (peptide, T7 phage, not shown: large carriers, ends and bridges not checked) [recombinant phage displaying polypeptide SEQ ID NO: 12] stands 0.267; under YDPGTGTWRSYLRFGGG (peptide, T7 phage, not shown: large carriers, ends and bridges not checked) [recombinant phage displaying polypeptide SEQ ID NO: 3], 0.278.
Still for that read-out and setting: under SWRRRGSSYDPRTGTWRSSIAYGGG (peptide, T7 phage, not shown: large carriers, ends and bridges not checked) [recombinant phage displaying polypeptide SEQ ID NO: 14] stands 0.282; under DAAWHLGELVWATYYDPETGTWLPDWDVMVRQ (peptide, T7 phage, not shown: large carriers, ends and bridges not checked) [recombinant phage displaying polypeptide SEQ ID NO: 32], 0.352.
Still for that read-out and setting: under DAAWHLGELVWATYYDPETGTWMPDWDRMLRR (peptide, T7 phage, not shown: large carriers, ends and bridges not checked) [recombinant phage displaying polypeptide SEQ ID NO: 38] stands 0.29; under B16, 0.213; under B17, 0.189.
On to B18, for which the O.D. 415 turned out to be 0.229.
On the same count and under the same terms, the same measure for GAVYRRSFYDPRTGTWRSSIAYRGG (peptide, T7 phage, not shown: large carriers, ends and bridges not checked) [recombinant phage displaying polypeptide SEQ ID NO: 19]: 0.353; for EAWHLGELVWATYYDPETGTWRPDWSRMSGR (peptide, T7 phage, not shown: large carriers, ends and bridges not checked) [recombinant phage displaying polypeptide SEQ ID NO: 55]: 0.252.
Same read-out and setting: under DAAWHLGELVWATYYDPETGTWEPDWSKMRPQ (peptide, T7 phage, not shown: large carriers, ends and bridges not checked) [recombinant phage displaying polypeptide SEQ ID NO: 34] stands 0.281.
Still for that read-out and setting: the same measure for TGRGRSARYDPRTGTWRSSIAYGGG (peptide, T7 phage, not shown: large carriers, ends and bridges not checked) [recombinant phage displaying polypeptide SEQ ID NO: 15]: 0.396; for YDPWTGTWRSFIWGGGG (peptide, T7 phage, not shown: large carriers, ends and bridges not checked) [recombinant phage displaying polypeptide SEQ ID NO: 6]: 0.149.
As to YDPYTGTWRSSIWVLSG (peptide, T7 phage, not shown: large carriers, ends and bridges not checked) [recombinant phage displaying polypeptide SEQ ID NO: 4], the O.D. 415 came to 0.165.
The same measure, in the same setting: under YDPGTGTWRSWLSFNVG (peptide, T7 phage, not shown: large carriers, ends and bridges not checked) [recombinant phage displaying polypeptide SEQ ID NO: 5] stands 0.155; under DAAWHLGELVWATYYDPETGTWQPDWDIMAGH (peptide, T7 phage, not shown: large carriers, ends and bridges not checked) [recombinant phage displaying polypeptide SEQ ID NO: 31], 0.295; under DAAWHLGELVWATYYDPETGTWEPDWKLMQRP (peptide, T7 phage, not shown: large carriers, ends and bridges not checked) [recombinant phage displaying polypeptide SEQ ID NO: 30], 0.287.

These data come from patent US20150353608A1.
